Data: patent US11015206B2, “Compositions and methods comprising sequences having hydroxyphenylpyruvate dioxygenase (HPPD) activity” (PIONEER HI-BRED INTERNATIONAL, INC., priority 2014, dated 2021)

Assays:
Format in all cases: biochemical, Z. mays
[1] = test system: 4-hydroxyphenylpyruvate dioxygenase (HPPD); assay: ON rate ratio: HPPD reaction rate with vs without inhibitor in the 70 to 90 second interval; settings: Table 7; tembotrione; combinatorial variants
Method in brief: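 Time courses of HPPD reactions, 60 or 120 nM enzyme with 100 μM HPP substrate, run with and without 4 μM inhibitor (e.g. mesotrione, tembotrione). Value is the rate with inhibitor over rate without, taken over 70–90 s; higher ratio reflects slower kON.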

[2] = test system: 4-hydroxyphenylpyruvate dioxygenase (HPPD); assay: OFF rate ratio: release of inhibitor from pre-formed enzyme-inhibitor complex; settings: Table 7; tembotrione; combinatorial variants
Method in brief: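 HPPD (7.2 μM) pre-incubated 1 h at RT with inhibitor (8 μM), then diluted into 25 mM Hepes pH 7, 2 mM ascorbate, 10 μM FeSO4, 100 μM HPP, 50 nM HGD; A320 followed 12 min. Ratio = steady-state rate with inhibitor over initial rate of inhibitor-free enzyme.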

[3] = test system: 4-hydroxyphenylpyruvate dioxygenase (HPPD); assay: Insensitivity parameter (ON × OFF) and trait fitness (ON × OFF × kcat/KM or × kcat); set-up: key to ON × OFF / Insensitivity, mesotrione, ON × OFF / Insensitivity, tembotrione, ON × OFF / Insensitivity, topramezone, ON × OFF / Insensitivity, sulcotrione, ON × OFF / Insensitivity, isoxaflutole (DKN), ON × OFF: insensitivity = ON rate ratio × OFF rate ratio (surrogate for KD)
Method in brief: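 Calculated, not measured directly: ON rate ratio × OFF rate ratio gives an insensitivity parameter serving as a KD surrogate.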

[4] = test system: 4-hydroxyphenylpyruvate dioxygenase (HPPD); assay: Estimate of kcat from initial rate at saturating hydroxyphenylpyruvate without inhibitor (ON rate ratio assay)
Method in brief: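 Reactions used 60 or 120 nM HPPD and saturating 100 μM hydroxyphenylpyruvate without inhibitor. kcat was estimated from the initial rate at the known enzyme concentration.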

[5] = Table 7, tembotrione, combinatorial variants
[6] = Table 7, combinatorial variants

| Molecule | ON rate ratio [1] | OFF rate ratio [2] | ON × OFF ([3]; Megatable 3, shuffled variants) | ON × OFF × kcat ([3]; Megatable 3, shuffled variants) | ON × OFF [3, 5] | ON × OFF × kcat [3, 5] | kcat ([4]; Megatable 3, shuffled variants) [min⁻¹] | kcat [4, 6] [min⁻¹] |
| --- | --- | --- | --- | --- | --- | --- | --- | --- |
| P056028-F-06 (protein, Zea mays variant form created by artificial means.) MGPTPTATAAGAAVAAASAAEQAAFRLVGHRNFVRFNPRSDRFQTLAFHHVELWCADAASAAGRFSFALGVPLAARSDLSTGNSAHASLLLRSGSLSLLFTAPYAHGADAATAALPSFSAAAARRFAADHGLAVRAVALRVADAEDAFRASVAAGARPAFGPVDLGRGFRLAEVELYGDVVLRYVSYPDGGAGEPFLPGFEGVASSGAADLGLNRFDHIVGNVPELAPAAAYMAGFTGFHEFAEFTTEDVGTTESGLNSMALANNSENVLLPLNEPVHGTKRRSQIQTFLDHHGGPGVQHIALASDDVLRTLREMRARSAMGGFEFLPPPLSDYYDGVRKCAGDVLTEAQINECQKLGVMVDRDDEGVLLQIFTKPVGDRPTFFLELIQRIGCMEKDEKGQEYQKGGCGGFGKGNFGQLFKSIEDYEKSLEAKQAAAAATAQGS | 0.739 | 0.305 | 0.225 | 3.25 | 0.225 | 3.25 | 14.5 | 14.5 |
| P056028-F-07 (protein, Zea mays variant form created by artificial means.) MGPTPTATAAGAAVAAASAAEQAAFRLVGHRNFVRFNPRSDRFQTLAFHHVELWCADAASAAGRFSFALGVPLAARSDLSTGNSAHASLLLRSGSLSLLFTAPYAHGADAATAALPSFSAAAARRFAADHGLAVRAVALRVADAEDAFRASVAAGARPAFGPVDLGRGFRLAEVELYGDVVLRYVSYPDGGAGEPFLPGFEGVASPGAADYGLSRFDHIVGNVPELAPAAAYMAGFTGFHEFAEFTTEDVGTTESGLNSMALANNSENVLLPLNEPVHGTKRRSQIQTFLDHHGGPGVQHIALASDDVLRTLREMRARSAMGGFEFLPPPLSDYYDGVRKCAGDVLTEAQINECQELGVMVDRDDEGVLLQIFTKPVGDRPTFFLEIIQRIGCMEKDEKGQEYQKGGCGGFGKGNFGQLFKSIEDYEKSLEAKHAAAAATAQGS | 0.735 | 0.322 | 0.236 | 5.04 | 0.236 | 5.04 | 21.4 | 21.4 |
| P056028-F-08 (protein, Zea mays variant form created by artificial means.) MGPTPTATAAGAAVAAASAAEQAAFRLVGHRNFVRFNPRSDRFQTLAFHHVELWCADAASAAGRFSFALGVPLAARSDLSTGNSAHASLLLRSGSLSLLFTAPYAHGADAATAALPSFSAAAARRFAADHGLAVRAVALRVADAEDAFRASVAAGARKAFGPVDLGRGFRLAEVELYGDVVLRYVSYPDGAAGEPFLPGFEGVASPGAADLGLSRFDHIVGNVPELAPAAAYMAGFTGFHEFAEFTTEDVGTTESGLNSMALANNSENVLLPLNEPVHGTKRRSQIQTFLDHHGGPGVQHIALASDDVLRTLREMRARSAMGGFEFLPPPLSDYYDGVRKCAGDVLTEAQINECQELGVMVDRDDEGVLLQIFTKPVGDRPTFFLEIIQRIGCMEKDEKGQEYQKGGCGGFGKGNFGQLFKSIEDYEKSLEAKQAAAAATAQGS | 0.705 | 0.377 | 0.266 | 3.23 | 0.266 | 3.23 | 12.1 | 12.1 |
